The target in the assay is T1, VEGFR2 (Homo sapiens, UniProt P35968).
T1 construct: co-immunoprecipitation results followed by immunoblot analysis of HUVEC lysates; endogenous in cells; host or cells: primary HUVEC
Description: Co-immunoprecipitation of Gal1 with VEGFR2 in HUVEC lysates. Format: binding. The settings on record: lysates of human ECs treated with Gal1. The protocol: Array (Cell Signaling) following manufacturer's directions. For co-immunoprecipitation, 500 μg cell lysates were incubated with 2 μg of anti-VEGFR2 (55B11; Cell Signaling) or anti-NRP-1 (C-19; Santa Cruz Biotechnol) antibodies. The immunocomplexes were captured with protein G PLUS-Agarose (Santa Cruz Biotechnol) and processed for immunoblot analysis as described in Ilarregui et al. (2009) Nat Immunol 10, 981-991. Equal amounts of protein were resolved by SDS-PAGE, blotted onto nitrocellulose membranes (GE Healthcare) and probed with anti-IκB-α (C21), anti-Erk1/2 (C14), anti-phospho-Erk1/2 (E4) or anti-actin (I-19) (all from Santa Cruz Biotechnol) or anti-Akt (9272), anti-phospho-Akt (9271S), anti-VEGFR2 (55B11), anti-phospho-VEGFR2 (19A10) (all from Cell Signaling) or anti-HIF-1α (mgc3; ABR BioReagent) antibodies or a rabbit anti-Gal1 IgG (1.5 μg/ml) obtained as described in Ilarregui et al. (2009) Nat Immunol 10, 981-991.

T1 sequence (P35968 20-1356): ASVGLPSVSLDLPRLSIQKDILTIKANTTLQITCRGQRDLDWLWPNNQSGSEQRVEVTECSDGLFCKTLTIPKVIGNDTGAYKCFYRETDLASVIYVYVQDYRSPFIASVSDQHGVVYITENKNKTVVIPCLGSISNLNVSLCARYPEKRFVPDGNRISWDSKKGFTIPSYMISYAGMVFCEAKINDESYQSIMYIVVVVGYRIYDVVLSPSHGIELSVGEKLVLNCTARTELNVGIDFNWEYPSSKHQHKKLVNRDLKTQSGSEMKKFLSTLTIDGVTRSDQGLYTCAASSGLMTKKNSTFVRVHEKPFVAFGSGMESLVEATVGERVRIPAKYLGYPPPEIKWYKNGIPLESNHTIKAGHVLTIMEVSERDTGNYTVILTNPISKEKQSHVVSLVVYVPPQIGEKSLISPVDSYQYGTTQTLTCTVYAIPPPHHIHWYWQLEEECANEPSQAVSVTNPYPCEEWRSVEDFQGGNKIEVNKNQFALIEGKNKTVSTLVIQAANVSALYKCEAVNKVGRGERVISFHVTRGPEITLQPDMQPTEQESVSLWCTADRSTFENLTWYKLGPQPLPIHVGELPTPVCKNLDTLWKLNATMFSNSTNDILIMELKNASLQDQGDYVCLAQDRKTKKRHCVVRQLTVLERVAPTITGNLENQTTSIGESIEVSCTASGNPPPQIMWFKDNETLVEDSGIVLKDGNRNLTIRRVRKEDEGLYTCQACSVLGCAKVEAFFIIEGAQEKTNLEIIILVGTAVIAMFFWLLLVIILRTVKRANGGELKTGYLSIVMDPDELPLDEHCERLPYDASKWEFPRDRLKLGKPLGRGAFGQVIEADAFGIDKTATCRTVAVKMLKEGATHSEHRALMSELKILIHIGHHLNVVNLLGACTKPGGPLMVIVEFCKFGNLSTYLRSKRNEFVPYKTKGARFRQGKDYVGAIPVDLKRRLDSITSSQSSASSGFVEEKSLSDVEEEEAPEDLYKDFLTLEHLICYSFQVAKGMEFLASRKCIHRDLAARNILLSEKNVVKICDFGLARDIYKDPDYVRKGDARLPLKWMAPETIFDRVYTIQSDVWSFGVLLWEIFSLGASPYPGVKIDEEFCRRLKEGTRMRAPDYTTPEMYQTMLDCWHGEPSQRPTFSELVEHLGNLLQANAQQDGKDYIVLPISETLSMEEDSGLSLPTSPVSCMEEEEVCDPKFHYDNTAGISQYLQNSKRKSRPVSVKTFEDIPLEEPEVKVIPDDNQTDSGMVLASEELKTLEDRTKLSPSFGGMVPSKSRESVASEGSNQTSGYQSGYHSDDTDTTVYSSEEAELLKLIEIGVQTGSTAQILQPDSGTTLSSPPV
T1 sequence (P09382 2-135 partner limits assumed): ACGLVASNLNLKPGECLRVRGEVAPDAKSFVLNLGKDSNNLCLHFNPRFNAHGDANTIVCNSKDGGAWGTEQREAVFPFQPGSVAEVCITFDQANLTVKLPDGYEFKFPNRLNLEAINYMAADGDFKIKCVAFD

On to rGal1: recombinant human galectin-1, for which the “association with VEGFR2” value was “associated specifically”.

For the origin of these results see patent publication US10456465B2, “Compositions, kits, and methods for the diagnosis prognosis, monitoring, treatment and modulation of post-transplant lymphoproliferative disorders and hypoxia associated angiogenesis disorders using galectin-1” (Dana-Farber Cancer Institute, Inc., priority 2009, dated 2019).
